Experimental data published in patent US20220242939A1 (BIOARCTIC, published 2022).
Values belong to the binder of their own block, whether it stands above or below them. Non-standard residues stand in square brackets, D forms with d. No end group written: not given here. Ahx = NCCCCCC(=O)O

How the values were obtained:
[1] = target: T1, L198 N-terminal neo-epitope peptide LAGQPL-Acp-C (SEQ ID NO:52) conjugated to BSA (human, not fully specified (residue 8); printed as LAGQPL-Acp-C; also: C-terminal Cys conjugated to BSA carrier); assay: direct ELISA, L198-BSA peptide coated at 1 µg/ml
T1 construct: BSA carrier; also called L198-BSA peptide
T1 peptide: LAGQPL[Ahx]C
Procedure, shortened: (§1)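 Antigens were coated overnight at 4 °C in PBS, then plates were blocked with protein-free blocker for 1 h. Purified mAbs in 3-fold serial dilutions from 3 μg/ml were bound for 2 h at room temperature, with anti-ApoE C-terminal E-8 as reference. TMB substrate development was stopped with H2SO4 and OD450 was read.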

[2] = target: T2, His-tagged recombinant full-length ApoE4, 10xHIS-ApoE4(1-299) (human, UniProt P02649 19-317); assay: direct ELISA
T2 construct: also called ApoE4-FL-HIS
T2 sequence (P02649 other isoform, or with tags, fused parts or gaps limits assumed): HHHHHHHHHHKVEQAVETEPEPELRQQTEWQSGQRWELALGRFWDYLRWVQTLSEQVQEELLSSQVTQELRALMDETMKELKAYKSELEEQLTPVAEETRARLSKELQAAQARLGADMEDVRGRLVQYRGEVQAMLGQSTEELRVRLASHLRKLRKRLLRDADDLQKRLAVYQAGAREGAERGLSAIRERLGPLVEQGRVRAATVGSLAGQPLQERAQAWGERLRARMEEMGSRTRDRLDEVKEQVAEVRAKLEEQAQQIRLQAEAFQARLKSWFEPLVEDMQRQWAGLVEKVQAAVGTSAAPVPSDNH

[3] = target: T3, recombinant C-terminal ApoE fragment L198-HIS (ApoE-L198-H299-10xHIS) (human, UniProt P02649 216-317); assay: direct ELISA, L198-HIS coated at 0.1 µM
T3 construct: also called L198-HIS fragment
T3 sequence (P02649 other isoform, or with tags, fused parts or gaps limits assumed): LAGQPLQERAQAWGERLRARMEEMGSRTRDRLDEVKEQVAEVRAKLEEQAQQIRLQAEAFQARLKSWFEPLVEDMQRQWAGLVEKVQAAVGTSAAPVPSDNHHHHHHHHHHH
Procedure, shortened: as §1

[4] = target: T4, recombinant full-length ApoE4 (aa 1-299; SEQ ID NO:45; Abcam cat. no. ab50243) (human, UniProt P02649 19-317); assay: direct ELISA; proteins coated at 0.1 uM, BSA peptides at 1 ug/ml; antibody in 3-fold dilutions from 3000 ng/ml; blank reduced OD 450 nm
T4 construct: Bought protein; also called recombinant ApoE4 full-length protein
T4 sequence (P02649 19-317 C130R limits assumed): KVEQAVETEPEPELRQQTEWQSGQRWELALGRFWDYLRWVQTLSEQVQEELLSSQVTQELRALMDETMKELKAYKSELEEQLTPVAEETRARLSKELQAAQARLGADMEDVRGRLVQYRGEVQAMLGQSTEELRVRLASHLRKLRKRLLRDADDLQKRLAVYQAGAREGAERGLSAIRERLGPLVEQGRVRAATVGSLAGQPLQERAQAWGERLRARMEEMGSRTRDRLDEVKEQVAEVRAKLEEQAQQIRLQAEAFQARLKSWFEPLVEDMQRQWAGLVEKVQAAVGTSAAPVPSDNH
Method: (§2) Selectivity evaluation of purified monoclonal antibodies by direct ELISA: The direct ELISA described below was used to evaluate the binding selectivity of the purified monoclonal antibodies produced in Example 14.
(§3) The screening was performed according to standard ELISA protocols. Briefly, 1 μg/ml solutions of BSA-conjugated neo-epitope peptides and negative control peptide, and 0.1 μM recombinant C-terminal ApoE fragment and full-length ApoE (Abcam, cat. no. ab50243) were prepared by dilution in PBS. 50 μl/well were added to an ELISA half-area 96 well microtiter plate, and the plate was sealed with adhesive sealer and incubated over night at 4° C. After discarding the solution, the plates were blocked with 150 μl/well of protein-free blocking solution (Pierce) for 1 h at room temperature with shake (600-900 rpm). The plates were washed four times with washing buffer containing 0.28 mM NaH₂PO₄, 2.5 mM Na₂HPO₄, 150 mM NaCl, 0.1% TWEEN®-20 and 0.0075% Kathon CG. Purified monoclonal antibodies of interest were 3-fold serially diluted with a starting dilution at 3 μg/ml (mixed 1:2 with dilution buffer (PBS with 0.1% BSA and 0.05% TWEEN®-20)). An anti-ApoE C-terminal antibody was used as a reference antibody (ApoE E-8 mouse monoclonal, Santa Cruz Biotechnology, cat. no. sc-393302). 50 μl/well were added into the ELISA plates and incubated for 2 h at room temperature with shake (600-900 rpm). The plates were washed four times as described previously. […] After another wash (as described previously), 50 μl/well of K-Blue® aqueous substrate (Neogen) were added, and the reaction was stopped after 5-15 min with 50 μl/well of 0.5 M […]. The optical density at 450 nm was read using an ELISA reader (Tecan).

[5] = target: T5, A199 N-terminal neo-epitope peptide AGQPLQ-Acp-C (SEQ ID NO:51) conjugated to BSA (human, not fully specified (residue 8); printed as AGQPLQ-Acp-C; also: C-terminal Cys conjugated to BSA carrier); assay: as above
T5 construct: BSA carrier; also called A199-BSA peptide
T5 peptide: AGQPLQ[Ahx]C
Method: as §2, §3

[6] = target: T6, negative control peptide AATVGSLAGQPLQER-Acp-C (SEQ ID NO:53) conjugated to BSA (human, not fully specified (residue 17); printed as AATVGSLAGQPLQER-Acp-C; also: C-terminal Cys conjugated to BSA carrier); assay: as above
T6 construct: BSA carrier; also called 192-206 BSA-conjugated peptide
T6 peptide: AATVGSLAGQPLQER[Ahx]C
Method: as §2, §3

[7] = target: T7, G200 N-terminal neo-epitope peptide GQPLQE-Acp-C (SEQ ID NO:50) conjugated to BSA (human, not fully specified (residue 8); printed as GQPLQE-Acp-C; also: C-terminal Cys conjugated to BSA carrier); assay: as above
T7 construct: also called G200-BSA peptide; G200-peptide
T7 peptide: GQPLQE[Ahx]C
Method: as §2, §3

[8] = target: T8, L198 N-terminal neo-epitope peptide LAGQPLQE-Acp-C (SEQ ID NO:54) conjugated to BSA (human, not fully specified (residue 10); printed as LAGQPLQE-Acp-C; also: C-terminal Cys conjugated to BSA carrier); assay: direct ELISA after limiting dilution
T8 construct: BSA carrier
T8 peptide: LAGQPLQE[Ahx]C

[9] = target: T9, full-length ApoE in human brain extract from Alzheimer's disease patients (human, UniProt P02649 19-317); assay: Western blot of AD brain RIPA 2% SDS extract; monoclonal antibody at 2 ug/ml as primary antibody
T9 construct: mature; Endogenous protein on Western blot or in solution (IP); also called ApoE full-length protein
T9 sequence (P02649 19-317): as the sequence (P02649 19-317 C130R limits assumed) above, with R112C counted along it

[10] = target: T4, recombinant full-length ApoE4 (aa …); assay: direct ELISA, target coated at 1 ug/ml, supernatant in 3-fold dilutions from 1000 ng/ml, OD 450 nm
Method: (§4) Selectivity evaluation by direct ELISA: The direct ELISA described below was used to evaluate the binding selectivity of generated monoclonal anti-ApoE antibodies with affinity for the N-terminal neo-epitope of C-terminal ApoE fragments starting at amino acid G200.
(§5) The screening was performed according to standard ELISA protocols. Briefly, 1 μg/ml solutions of N-terminal neo-epitope peptide (SEQ ID NO:50) conjugated to BSA, the recombinant C-terminal ApoE fragment G200-HIS (SEQ ID NO:48) and recombinant full-length ApoE4 (SEQ ID NO:45; Abcam; cat. no. ab50243) were prepared by dilution in PBS. 50 μl/well were added to an ELISA half-area 96 well microtiter plate. Then, the plate was sealed with adhesive sealer and incubated over night at 4° C. The plates were blocked with 150 μl/well of protein-free blocking solution (Pierce) for 1 h at room temperature with shake (600-900 rpm). The plates were washed four times with washing buffer containing 0.28 mM NaH₂PO₄, 2.5 mM Na₂HPO₄, 150 mM NaCl, 0.1% TWEEN®-20 and 0.0075% Kathon CG. Antibodies of interest were serially diluted 3-fold with a starting dilution at 1 μg/ml (mixed 1:1 with dilution buffer: PBS with 0.1% BSA and 0.05% TWEEN®-20) and incubated for 2 h at room temperature. The plates were washed four times as before. […] After another wash (as above), 50 μl/well of K-Blue® aqueous substrate (Neogen) were added, and the reaction was stopped after 5-15 min with 50 μl/well of 0.5 M […]. The optical density at 450 nm was read using an ELISA reader (Tecan). The optical density was plotted against the antibody concentration to generate concentration-response curves (FIG. 14).

[11] = target: T10, recombinant C-terminal ApoE fragment G200-HIS (ApoE-G200-H299-10xHIS) (human, UniProt P02649 218-317); assay: as above
T10 construct: also called G200-HIS fragment
T10 sequence (P02649 other isoform, or with tags, fused parts or gaps limits assumed): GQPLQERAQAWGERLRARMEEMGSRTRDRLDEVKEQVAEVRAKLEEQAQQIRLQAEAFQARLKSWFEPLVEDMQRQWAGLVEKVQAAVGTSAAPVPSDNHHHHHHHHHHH
Method: as §4, §5

[12] = target: T7, G200 N-terminal neo-epitope peptide …; assay: as above
Method: as §4, §5

[13] = target: T9, full-length ApoE in human brain extract …; assay: Western blot, human AD brain extract, hybridoma supernatant (data not shown for 21C3)
Source text: Selectivity evaluation and human target binding in Alzheimer's disease brain extracts by Western blot analysis: The Western blot analysis described below was used to evaluate selective binding of monoclonal antibodies with affinity for the N-terminal neo-epitope of ApoE fragments […], starting at G200, without binding to ApoE full-length protein, in human brain extracts from an Alzheimer's disease patient. Fresh frozen brain tissue from the Alzheimer's disease patient was homogenized in RIPA 2% SDS extraction buffer, followed by centrifugation at 16000×g for 1 h. The subsequent supernatant was subjected to standard protein concentration determination.
RIPA 2% SDS brain extract containing 80 μg total protein was mixed with 2×Laemmli sample buffer, boiled for 5 min at 95° C. and loaded onto SDS-PAGE gels (Bolt™ 12% Bis-Tris Plus 10 well, Thermo Fisher, cat. no. NW00120BOX). Gels were run for 30-40 min at 180 V, after which proteins were transferred from the gels to nitrocellulose membranes using the Trans-Blot® Turbo™ system (Bio-Rad). Membranes were blocked in Odyssey® blocking buffer for 1 h and incubated over night at room temperature with hybridoma supernatant diluted 1:1 in Odyssey® blocking buffer with 0.1% TWEEN®-20. […]

- EC50 [1]: 0.0135 µg/mL
- binding result [2]: no binding (tested: 3 µg/ml)
- EC50 [3]: 0.0185 µg/mL
- binding result [4]: no binding (tested: 3000 ng/ml)
- binding result [5]: no binding (tested: 3000 ng/ml)
- binding result [6]: no binding (tested: 3000 ng/ml)
- binding result [7]: no binding (tested: 3000 ng/ml)
- binding result [8]: binds
- binding result [9]: no binding (tested: 2 ug/ml (text))
B1: 6F4, monoclonal anti-L198 antibody (antibody, IgG1, V domains shown)
VH: EVNLEESGGDLVQPGRSLKLSCVASGFTFSDYWMNWVRQSPEKGLEWVAQIRLKSDNYVTHYVESLKGRFTISRDDSRSCVYLQMNNLRAEDTGIYYCTGHILLRRRYFDVWGTGTTVTVSS
VL: DIVMTQSQKFMSTSVGDRVSVTCEASQNVGTNVAWYQQKPGQSPKGLIYSASYRYSGVPDRFTGSGSGTDFTLTISTVQSEDLAEYFCHQFNTYPYTFGGGTTLEII

- binding result [10]: no binding (tested: 1000 ng/ml)
- EC50 (read off the curve) [11]: ~4 ng/mL
- EC50 (read off the curve) [12]: ~4 ng/mL
- binding result [13]: no binding
B2: 21C3, hybridoma monoclonal antibody (unpurified supernatant) (antibody, V domains shown)
VH: EVQLVESGGDLVKPGGSLKLSCAASGFTFSSYAMSWVRQSPEKRLEWVAEISGSGSRDHYTDSVTGRFTVSRDNAKNTLYLEMSSLRSEDTAIYYCARQLTGTDYYGTDYWGQGTSVTVSS
VL: DVLMTQIPLSLPVSLGDQASISCRSSQSIVYSNGNTYLEWYLQRPGQSPKLLIYKVSNRFSGVPDRFSGSGSGTDFTLKISRVEAEDLGVYYCFQGSHLPYTFGGGTKLEIK
notes: same VH and VL as 4E6; not made as recombinant antibody
